Assay results published in patent US20180230224A1 (KITE PHARMA, published 2018).

T1: recombinant CD70-Fc (Sino Biological) (UniProt P32970 39-193, limits assumed)
T1 construct: Bought reagent; not shown: Fc part
T1 sequence (looked up): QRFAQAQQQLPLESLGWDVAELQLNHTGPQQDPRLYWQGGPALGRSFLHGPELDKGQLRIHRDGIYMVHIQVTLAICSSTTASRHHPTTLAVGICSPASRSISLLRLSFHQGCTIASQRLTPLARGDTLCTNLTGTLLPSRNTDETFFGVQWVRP

B1: 8G1.1_C28T_4Bz (other)
chain: QEQLVESGGGVVQPGRSLRLSCAASGFTFSSYGMHWVRQAPGKGLEWVAVTWYDGSNKYYGDSVKGRFTISRDNSKNTLYLQMNSLRAEDTAVYYCARDLLRGVKGYAMDVWGQGTTVTVSSGGGGSGGGGSGGGGSEIVLTQSPGTLSLSPGERATLSCRASQSLRRIYLAWYQQKPGQAPRLLIYDVFDRATGIPDRFSGGGSGTDFTLTISRLEPEDFAVYYCQQYSDSPFTFGPGTKVDIKRAAALDNEKSNGTIIHVKGKHLCPSPLFPGPSKPFWVLVVVGGVLACYSLLVTVAFIIFWVRFSVVKRGRKKLLYIFKQPFMRPVQTTQEEDGCSCRFPEEEEGGCELRVKFSRSADAPAYQQGQNQLYNELNLGRREEYDVLDKRRGRDPEMGGKPRRKNPQEGLYNELQKDKMAEAYSEIGMKGERRRGKGHDGLYQGLSTATKDTYDALHMQALPPR
notes: Chimeric antigen receptor on lentivirus-transduced human T cells; 8G1 scFv, CD28T hinge/TM, 4-1BB, CD3 zeta; also called 28T-4Bz comprising an 8G1 scFv
B2: 1C8.1.001_C28T_4Bz (other)
chain: QVQLQESGPGLVKPSQTLSLTCTVSGDSIISGGYYWSWIRQHPGKGLEWIGYIFYSGSTDYNPSLKSRVTISVDTSKNQFSLKLSSVTAADTAVYYCARSGYSYALFDHWGQGTLVTVSSGGGGSGGGGSGGGGSDIQMTQSPSSLSASVGDRVTISCRASQFIGRYFNWYQQQPGKAPKVLIYAESSLQSGVPSRFSGSGSGTEFTLTISSLQPEDFARYYCQQSYSTPFTFGQGTKVEIKRAAALDNEKSNGTIIHVKGKHLCPSPLFPGPSKPFWVLVVVGGVLACYSLLVTVAFIIFWVRFSVVKRGRKKLLYIFKQPFMRPVQTTQEEDGCSCRFPEEEEGGCELRVKFSRSADAPAYQQGQNQLYNELNLGRREEYDVLDKRRGRDPEMGGKPRRKNPQEGLYNELQKDKMAEAYSEIGMKGERRRGKGHDGLYQGLSTATKDTYDALHMQALPPR
notes: Chimeric antigen receptor on lentivirus-transduced human T cells; 1C8 scFv, CD28T hinge/TM, 4-1BB, CD3 zeta; also called 28T-4Bz comprising a 1C8 scFv
B3: 6E9.1_C28T_4Bz (other)
chain: QVHLVQSGAEVKKPGASVRVSCKASGYTFTSYYLHWVRQAPGQGLEWMGIVDPSGGSTSYDQKFQGRFTMTRDTSTSTVYMELSSLRSEDTAVYYCARDYGDYVFDYWGQGTLVTVSSGGGGSGGGGSGGGGSQSVLTQPPSASGTPGQRVTISCSGSSSNIGTNTVNWYQQLPGTAPQLLIYINNQRPSGVPDRFSGSKSGTSASLAISGLQSEDEADYYCATWDDSLNGPVVGGGTKLTVLGAAALDNEKSNGTIIHVKGKHLCPSPLFPGPSKPFWVLVVVGGVLACYSLLVTVAFIIFWVRFSVVKRGRKKLLYIFKQPFMRPVQTTQEEDGCSCRFPEEEEGGCELRVKFSRSADAPAYQQGQNQLYNELNLGRREEYDVLDKRRGRDPEMGGKPRRKNPQEGLYNELQKDKMAEAYSEIGMKGERRRGKGHDGLYQGLSTATKDTYDALHMQALPPR
notes: Chimeric antigen receptor on lentivirus-transduced human T cells; 6E9 scFv, CD28T hinge/TM, 4-1BB, CD3 zeta; also called 28T-4Bz comprising a 6E9 scFv
B4: 8G1.1_C28T_28z (other)
chain: QEQLVESGGGVVQPGRSLRLSCAASGFTFSSYGMHWVRQAPGKGLEWVAVTWYDGSNKYYGDSVKGRFTISRDNSKNTLYLQMNSLRAEDTAVYYCARDLLRGVKGYAMDVWGQGTTVTVSSGGGGSGGGGSGGGGSEIVLTQSPGTLSLSPGERATLSCRASQSLRRIYLAWYQQKPGQAPRLLIYDVFDRATGIPDRFSGGGSGTDFTLTISRLEPEDFAVYYCQQYSDSPFTFGPGTKVDIKRAAALDNEKSNGTIIHVKGKHLCPSPLFPGPSKPFWVLVVVGGVLACYSLLVTVAFIIFWVRSKRSRLLHSDYMNMTPRRPGPTRKHYQPYAPPRDFAAYRSRVKFSRSADAPAYQQGQNQLYNELNLGRREEYDVLDKRRGRDPEMGGKPRRKNPQEGLYNELQKDKMAEAYSEIGMKGERRRGKGHDGLYQGLSTATKDTYDALHMQALPPR
notes: also called CD70 CAR C3L; 28T-28z comprising an 8G1 scFv
B5: 1C8.1.001_C28T_28z (other)
chain: QVQLQESGPGLVKPSQTLSLTCTVSGDSIISGGYYWSWIRQHPGKGLEWIGYIFYSGSTDYNPSLKSRVTISVDTSKNQFSLKLSSVTAADTAVYYCARSGYSYALFDHWGQGTLVTVSSGGGGSGGGGSGGGGSDIQMTQSPSSLSASVGDRVTISCRASQFIGRYFNWYQQQPGKAPKVLIYAESSLQSGVPSRFSGSGSGTEFTLTISSLQPEDFARYYCQQSYSTPFTFGQGTKVEIKRAAALDNEKSNGTIIHVKGKHLCPSPLFPGPSKPFWVLVVVGGVLACYSLLVTVAFIIFWVRSKRSRLLHSDYMNMTPRRPGPTRKHYQPYAPPRDFAAYRSRVKFSRSADAPAYQQGQNQLYNELNLGRREEYDVLDKRRGRDPEMGGKPRRKNPQEGLYNELQKDKMAEAYSEIGMKGERRRGKGHDGLYQGLSTATKDTYDALHMQALPPR
notes: Chimeric antigen receptor on lentivirus-transduced human T cells; also called 28T-28z comprising a 1C8 scFv
B6: 6E9.1_C28T_28z (other)
chain: QVHLVQSGAEVKKPGASVRVSCKASGYTFTSYYLHWVRQAPGQGLEWMGIVDPSGGSTSYDQKFQGRFTMTRDTSTSTVYMELSSLRSEDTAVYYCARDYGDYVFDYWGQGTLVTVSSGGGGSGGGGSGGGGSQSVLTQPPSASGTPGQRVTISCSGSSSNIGTNTVNWYQQLPGTAPQLLIYINNQRPSGVPDRFSGSKSGTSASLAISGLQSEDEADYYCATWDDSLNGPVVGGGTKLTVLGAAALDNEKSNGTIIHVKGKHLCPSPLFPGPSKPFWVLVVVGGVLACYSLLVTVAFIIFWVRSKRSRLLHSDYMNMTPRRPGPTRKHYQPYAPPRDFAAYRSRVKFSRSADAPAYQQGQNQLYNELNLGRREEYDVLDKRRGRDPEMGGKPRRKNPQEGLYNELQKDKMAEAYSEIGMKGERRRGKGHDGLYQGLSTATKDTYDALHMQALPPR
notes: Chimeric antigen receptor on lentivirus-transduced human T cells; also called 28T-28z comprising a 6E9 scFv

Key:
[1] = target: CD70 on NAMALWA and Raji cells (human) (UniProt P32970); experiment: flow cytometry; NAMALWA cells stained with PE-conjugated anti-CD70 antibody; open histogram as control
[2] = target: CD70 on NAMALWA and Raji cells (human) (UniProt P32970); experiment: flow cytometry; MV4;11 cells stained with PE-conjugated anti-CD70 antibody; open histogram as control
[3] = target: CD70 on NAMALWA and Raji cells (human) (UniProt P32970); experiment: flow cytometry; Toledo cells stained with PE-conjugated anti-CD70 antibody; open histogram as control
[4] = target: CD70 on NAMALWA and Raji cells (human) (UniProt P32970); experiment: flow cytometry; EoL-1 cells stained with PE-conjugated anti-CD70 antibody; open histogram as control
[5] = target: CD70 on NAMALWA and Raji cells (human) (UniProt P32970); experiment: flow cytometry; Raji cells (panel title cut to 'Raj'; panel order given in the legend paragraph 42) stained with PE-conjugated anti-CD70 antibody; open histogram as control
[6] = target: CD70 on NAMALWA and Raji cells (human) (UniProt P32970); experiment: flow cytometry; U-937 cells stained with PE-conjugated anti-CD70 antibody; open histogram as control
[7] = target: T1, recombinant CD70-Fc (Sino Biological); experiment: flow cytometry; donor 1 T cells transduced with the CAR, day 14 post stimulation, stained with recombinant CD70-Fc and goat anti-human IgG Fc PE; mock-transduced cells as control
Procedure: Peripheral blood mononuclear cells (PBMCs) were isolated from two different healthy donor leukopaks (Hemacare) using Ficoll®-Paque density centrifugation according to the manufacturer's instructions. PBMCs were stimulated using OKT3 (Muromonab-CD3, 50 ng/ml, Miltenyi Biotec) in R10 media supplemented with IL-2 (300 IU/ml, Proleukin®, Prometheus® Therapeutics and Diagnostics). Forty-eight hours post-stimulation, cells were transduced using lentivirus containing the different CD70 CAR constructs at a multiplicity of infection (MOI) of 10. Cells were maintained at 0.5×10⁶-2.0×10⁶ cells/ml prior to use in activity assays.
At day 14 post-stimulation, transduced T cells were stained with recombinant CD70-Fc (Sino Biological) in stain buffer (BD Pharmingen) for 30 minutes at 4° C. Cells were then washed and stained with goat anti-human IgG Fc PE (Jackson ImmunoResearch) in stain buffer for 30 minutes at 4° C. Cells were then washed and resuspended in stain buffer with propidium iodide (BD Pharmingen) prior to data acquisition. All experiments were performed in two different donors.

Molecule | % CAR (+) [7] | further results
anti-CD70 antibody conjugated to PE (BD Pharmingen) |  | percent of cells in the positive gate (number in the panel) [1]: 100%; percent of cells in the positive gate (number in the panel) [2]: 43.1%; percent of cells in the positive gate (number in the panel) [3]: 99.9%; percent of cells in the positive gate (number in the panel) [4]: 64.6%; percent of cells in the positive gate (number in the panel) [5]: 100%; percent of cells in the positive gate (number in the panel) [6]: 96.6%
B1 | 49.8% | 
B2 | 0.27% | 
B3 | 4.48% | 
B4 | 42.2% | 
B5 | 25.4% | 
B6 | 4.45% | 
